# T1: Ol-bsf (Ol-lrpprc, Bicoid Stability Factor) (Oryzias latipes, UniProt H2LIH1 1-1438)
# T1 sequence: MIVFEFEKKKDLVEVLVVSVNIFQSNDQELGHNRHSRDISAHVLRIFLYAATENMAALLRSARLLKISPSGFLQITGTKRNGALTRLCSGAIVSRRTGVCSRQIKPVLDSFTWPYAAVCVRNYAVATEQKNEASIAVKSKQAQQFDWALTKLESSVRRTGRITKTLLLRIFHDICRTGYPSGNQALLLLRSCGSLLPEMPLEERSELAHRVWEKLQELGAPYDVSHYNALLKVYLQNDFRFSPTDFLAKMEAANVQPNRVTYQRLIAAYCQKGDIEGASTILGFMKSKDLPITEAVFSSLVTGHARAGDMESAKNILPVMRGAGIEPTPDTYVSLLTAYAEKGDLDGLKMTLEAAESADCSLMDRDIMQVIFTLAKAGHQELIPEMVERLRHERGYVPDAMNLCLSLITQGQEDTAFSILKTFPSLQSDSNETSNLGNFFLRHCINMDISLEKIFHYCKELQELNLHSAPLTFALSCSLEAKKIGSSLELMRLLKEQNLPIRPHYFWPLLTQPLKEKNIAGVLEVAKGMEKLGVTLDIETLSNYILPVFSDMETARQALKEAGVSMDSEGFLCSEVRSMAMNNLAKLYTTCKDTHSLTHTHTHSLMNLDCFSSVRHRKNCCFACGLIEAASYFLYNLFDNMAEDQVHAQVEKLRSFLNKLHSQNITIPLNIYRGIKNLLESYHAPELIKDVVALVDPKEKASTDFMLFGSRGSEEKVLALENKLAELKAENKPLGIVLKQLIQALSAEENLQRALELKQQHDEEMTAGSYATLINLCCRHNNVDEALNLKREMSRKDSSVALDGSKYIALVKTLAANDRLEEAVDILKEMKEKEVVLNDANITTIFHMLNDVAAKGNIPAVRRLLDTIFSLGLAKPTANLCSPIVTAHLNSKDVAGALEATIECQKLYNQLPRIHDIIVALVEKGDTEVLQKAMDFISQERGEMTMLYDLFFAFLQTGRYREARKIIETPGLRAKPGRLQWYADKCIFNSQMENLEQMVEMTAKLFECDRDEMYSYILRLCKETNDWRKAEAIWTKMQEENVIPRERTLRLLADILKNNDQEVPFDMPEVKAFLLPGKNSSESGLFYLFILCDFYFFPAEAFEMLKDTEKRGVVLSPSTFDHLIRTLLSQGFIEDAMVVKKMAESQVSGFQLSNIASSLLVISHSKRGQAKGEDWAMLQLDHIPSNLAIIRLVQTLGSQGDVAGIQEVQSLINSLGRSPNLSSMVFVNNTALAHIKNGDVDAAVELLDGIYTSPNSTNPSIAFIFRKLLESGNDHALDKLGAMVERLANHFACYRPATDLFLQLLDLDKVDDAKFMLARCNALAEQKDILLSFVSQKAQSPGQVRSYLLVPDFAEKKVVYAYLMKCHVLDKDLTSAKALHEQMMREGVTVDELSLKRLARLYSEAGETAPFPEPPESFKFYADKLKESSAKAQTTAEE
# Tests used:
# [1] = biological target: T1, Ol-bsf (Ol-lrpprc, Bicoid Stability …); assay: EMSA; self-competition 1/1 to 1/4 gave progressive loss of shift; EMSA: 10 mM Tris-HCl pH 7.9, 100 mM KCl, 10% glycerol, 5 mM MgCl2, 1 ug torula rRNA, 0.075% Triton X-100, 1 mM DTT, 1 ug BSA, 0.5 ng probe, 2 or 4 uL IVT mix in 20 uL, on ice 10 min; heparin (1/10 volume of 50 mg/mL) before loading; 5% native gel, 0.5x TBE; conditions: protein: ivt; tags: FLAG; label: 5'-32P when probe
# [2] = biological target: T1, Ol-bsf (Ol-lrpprc, Bicoid Stability …); assay: competition; vs labelled D3U-box, probe/competitor 1/5; EMSA: 10 mM Tris-HCl pH 7.9, 100 mM KCl, 10% glycerol, 5 mM MgCl2, 1 ug torula rRNA, 0.075% Triton X-100, 1 mM DTT, 1 ug BSA, 0.5 ng probe, 2 or 4 uL IVT mix in 20 uL, on ice 10 min; heparin (1/10 volume of 50 mg/mL) before loading; 5% native gel, 0.5x TBE; conditions: protein: ivt; tags: FLAG
Binder,binding result [1],binding result [2]
UGGUUCACGUCUGCUGCAGGUCUCUGACUCU (ssRNA) [native medaka D3U-box],binds,
UGGUUCACGUUCUUCAAGACGCUCUGACUCU (ssRNA) [D3U-scrambled box (S-D3U-box)],,no binding
